As usually defined, the stoichiometry N is the number of molecules, sites or subunits per partner or assembly.

In test [1] the target is non-tagged mature mouse VEGF-A (188 amino acids form), refolded from TAPS-VEGF-A (mouse). Kind of test: SDS-PAGE under reducing and non-reducing conditions; purified protein; disulfide-linked homodimer told from monomer by comparing migration under reducing or non-reducing conditions; 5%-20% gradient gel; refolded samples after cation-exchange chromatography.
Test [2] has as its target secreted form of VEGF-A-HisTag expressed in Expi293 cells (mouse) (UniProt Q00731). The test can be described thus: SDS-PAGE; VEGF-A-HisTag from Expi293 culture media, purified on a heparin affinity column.
Test [3] has as its target VEGF-A-HisTag refolded from inclusion bodies of BL21(DE3) (mouse). Kind of test: SDS-PAGE under reducing and non-reducing conditions; purified protein; disulfide-linked homodimer told from monomer by comparing migration under reducing or non-reducing conditions; 5%-20% gradient gel; refolded samples after cation-exchange chromatography.

On to “non-tagged mature mouse VEGF-A (188 amino acids form), refolded from TAPS-VEGF-A (ligand)”, for which, in test [1], the stoichiometry N came to 2.

Turning to “secreted form of VEGF-A-HisTag expressed in Expi293 cells (from UniProt Q00731 1-392) (ligand)”, the stoichiometry N in test [2] was 2.

Regarding “VEGF-A-HisTag refolded from inclusion bodies of BL21(DE3) (ligand)”, the stoichiometry N in test [3] came out at 2.

The values above are taken from paper PMC12171399.
